Results on two molecules are retold here after patent EP4585618A1 (Jiangsu Hengrui Pharmaceuticals Co., Ltd., dated 2025).

Assay [1] concerns the target T1, full-length human ILT4 protein overexpressed on cells (human, UniProt Q8N423 22-597).
T1 construct: also called CHO-S/ILT4; ILT4 stably transfected cell strain
Nature of the assay: flow cytometry competition on CHO-S/ILT4 cells; competitor CF647-labelled HLA-G tetramer; Assay 2.

Assay [2] concerns the target T1, full-length human ILT4 protein …. Nature of the assay: flow cytometry competition on CHO-S/ILT4 cells; competitor CF647-labelled HLA-G tetramer; Assay 1.
The target is the same in assay [3]. The assay can be described thus: flow cytometry competition on CHO-S/ILT4 cells; competitor CF647-labelled HLA-G tetramer; Assay 4.
The target is the same in assay [4]. Nature of the assay: flow cytometry (FACS) on CHO-S/ILT4 cells; Assay 1.
Assay [5] addresses T2, His-tagged ILT4 protein extracellular domain: ILT4-His (human, UniProt Q8N423 22-460).
T2 construct: Expressed in 293 cells; also called human ILT4-His protein
Nature of the assay: SPR (Biacore), antibody captured on Protein A chip, ILT4-His as analyte, 1:1 model.

Assay [6] has as its target T1, full-length human ILT4 protein …. The assay can be described thus: flow cytometry competition on CHO-S/ILT4 cells; competitor CF647-labelled HLA-G tetramer; Assay 3.
Assay [7] deals with T2, His-tagged ILT4 protein extracellular …. Nature of the assay: phage ELISA.
Assay [8] deals with T3, His-tagged ILT2 protein extracellular domain: ILT2-His (human, UniProt Q8NHL6 24-461).
T3 construct: The entry is the whole construct, with the His tag; also called human ILT2 protein
Nature of the assay: phage ELISA.

T1 sequence (Q8N423 other isoform, or with tags, fused parts or gaps limits assumed): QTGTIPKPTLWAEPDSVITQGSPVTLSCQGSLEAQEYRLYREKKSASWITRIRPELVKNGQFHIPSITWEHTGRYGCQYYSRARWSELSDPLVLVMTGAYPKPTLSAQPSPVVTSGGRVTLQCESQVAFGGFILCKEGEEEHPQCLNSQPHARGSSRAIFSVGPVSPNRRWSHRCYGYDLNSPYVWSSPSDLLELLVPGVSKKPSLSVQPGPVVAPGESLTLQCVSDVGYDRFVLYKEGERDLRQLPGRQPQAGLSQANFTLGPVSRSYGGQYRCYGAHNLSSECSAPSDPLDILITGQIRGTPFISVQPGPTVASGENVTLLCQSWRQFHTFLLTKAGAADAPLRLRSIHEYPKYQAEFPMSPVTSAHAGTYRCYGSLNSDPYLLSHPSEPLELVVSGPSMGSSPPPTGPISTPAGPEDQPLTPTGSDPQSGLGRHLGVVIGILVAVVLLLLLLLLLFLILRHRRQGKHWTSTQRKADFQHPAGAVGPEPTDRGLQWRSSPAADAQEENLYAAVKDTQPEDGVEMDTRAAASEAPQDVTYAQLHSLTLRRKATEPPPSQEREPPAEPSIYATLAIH
T2 sequence (Q8N423 other isoform, or with tags, fused parts or gaps limits assumed): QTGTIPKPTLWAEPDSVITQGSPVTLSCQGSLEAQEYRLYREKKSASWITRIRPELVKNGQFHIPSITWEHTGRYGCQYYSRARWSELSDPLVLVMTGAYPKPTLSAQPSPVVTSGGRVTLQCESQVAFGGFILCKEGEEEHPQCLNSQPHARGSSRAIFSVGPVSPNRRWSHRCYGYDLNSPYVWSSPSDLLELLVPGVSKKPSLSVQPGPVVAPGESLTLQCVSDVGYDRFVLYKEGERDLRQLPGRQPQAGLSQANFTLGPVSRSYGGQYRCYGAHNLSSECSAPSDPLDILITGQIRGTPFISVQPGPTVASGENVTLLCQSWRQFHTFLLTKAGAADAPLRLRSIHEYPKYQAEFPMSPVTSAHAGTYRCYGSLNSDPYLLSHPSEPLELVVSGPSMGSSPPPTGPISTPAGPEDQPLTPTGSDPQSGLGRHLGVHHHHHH
T3 sequence (Q8NHL6 other isoform, or with tags, fused parts or gaps): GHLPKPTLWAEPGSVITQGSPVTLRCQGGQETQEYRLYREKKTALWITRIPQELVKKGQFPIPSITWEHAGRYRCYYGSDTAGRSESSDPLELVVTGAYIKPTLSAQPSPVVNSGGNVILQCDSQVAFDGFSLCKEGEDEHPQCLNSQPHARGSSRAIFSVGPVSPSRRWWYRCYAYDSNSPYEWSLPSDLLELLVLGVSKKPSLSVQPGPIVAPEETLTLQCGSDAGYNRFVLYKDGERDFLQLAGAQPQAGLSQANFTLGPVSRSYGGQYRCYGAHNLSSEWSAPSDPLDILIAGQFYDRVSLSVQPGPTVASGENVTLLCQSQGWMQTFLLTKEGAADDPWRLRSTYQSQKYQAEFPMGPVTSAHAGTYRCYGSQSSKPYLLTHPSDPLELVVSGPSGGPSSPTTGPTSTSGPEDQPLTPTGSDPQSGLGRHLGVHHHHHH

B1: positive control antibody MK (sequences from WO2018187518A1) (antibody, human IgG4 S228P, lambda, V domains shown)
VH: EVQLQQWGAGLLKPSETLSLTCAVYGGSFSGYYWSWIRQPPGKGLEWIGEINHAGSTNYNPSLKSRVTISVDTSKNQFSLKLSSVTAADTAVYYCARLPTRWVTTRYFDLWGRGTLVTVSS
VL: ESVLTQPPSVSGAPGQRVTISCTGSSSNIGAGYDVHWYQQLPGTAPKLLIYGDSNRPSGVPDRFSVSKSGASASLAITGLQAEDEADYYCQSFDNSLSAYVFGGGTQLTVLG
On to B1, for which the 50% inhibitory concentration (IC50) was found to be 0.138 µg/mL in assay [1], 0.031 µg/mL in assay [2], 0.092 µg/mL in assay [3] and 0.138 µg/mL in assay [6]. In assay [4], this molecule had an EC50 of 0.031 µg/mL. In addition, the dissociation constant (Kd) in assay [5] stood at 19.1 nM. In addition, the koff in assay [5] was determined as 0.00863 s⁻¹. Further, the kon in assay [5] was found to be 452000 M⁻¹ s⁻¹.

B2: P2 (fully human-derived antibody clone from phage library screening) (antibody, V domains shown)
VH: QVQLVQSGAEVKKPGSSVKVSCKASGYTFTSYDISWVRQAPGQGLEWMGGIIPIFGTANYAQKFQGRVTITADESTSTAYMELSSLRSEDTAVYYCTAGIFLATAYWGQGTLVTVSS
VL: DIQMTQSPSSMSASVGDRVTISCQASQDINNYLNWYQQRPGQAPKLLIYDASTLETGVPSRFSGSGSGTYFTLTITSLQPADVATYYCQQYENVPITFGQGTRLEIK
On to B2, for which the figures for the binding result in assay [7] and in assay [8] were “binds” and “no binding”, respectively.
